The target of test [1] is T1, human heterodimeric single-chain CD3γδ extracellular domain (produced in-house) (human).
T1 chain 1: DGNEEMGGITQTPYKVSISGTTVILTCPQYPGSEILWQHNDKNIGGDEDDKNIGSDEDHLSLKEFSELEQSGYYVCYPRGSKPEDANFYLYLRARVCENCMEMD
T1 chain 2: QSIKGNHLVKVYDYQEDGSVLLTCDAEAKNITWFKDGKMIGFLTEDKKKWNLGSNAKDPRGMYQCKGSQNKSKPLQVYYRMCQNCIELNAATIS
The experiment in a line: SPR, human single-chain CD3 ECD immobilised by amine coupling, scDb injected. Background: Surface plasmon resonance follows binding to a sensor surface in real time, without labels.

The target in test [2] is T2, cynomolgus IL23R Fc chimera (cynomolgus monkey, UniProt G7NWY5 24-353).
T2 construct: source of the cynomolgus chimera is not clearly stated; also called cyno IL23R; not shown: Fc part of the chimera
T2 sequence: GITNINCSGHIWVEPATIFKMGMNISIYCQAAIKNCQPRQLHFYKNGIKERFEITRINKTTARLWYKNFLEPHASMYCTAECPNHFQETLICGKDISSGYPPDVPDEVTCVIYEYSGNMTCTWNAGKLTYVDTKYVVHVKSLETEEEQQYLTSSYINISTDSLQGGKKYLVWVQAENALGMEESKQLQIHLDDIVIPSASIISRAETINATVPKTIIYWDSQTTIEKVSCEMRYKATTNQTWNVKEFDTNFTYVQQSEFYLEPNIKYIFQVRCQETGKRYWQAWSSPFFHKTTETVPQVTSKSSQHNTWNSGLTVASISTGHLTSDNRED
Description: SPR, IL23R Fc chimera captured by anti-human IgG Fc, scFv injected. On the procedure: (§1) Binding affinities of anti-IL23R scFvs were measured by surface plasmon resonance (SPR) using a MASS-1 SPR instrument (Sierra Sensors). […] After immobilization, 1 ug/ml recombinant human IL23R Fc chimera (R&D Systems, Cat. No. 1400-IR-050) was captured by the anti-human IgG antibody while a second immobilized channel served as a control where the capture was replaced by buffer. Two-fold serial dilutions of human scFvs ranging from 180 to 2.81 nM were injected into both flow cells for 3 min and dissociation of the scFvs from the chimera on the sensor chip was allowed to proceed for 700 sec. After each injection cycle, surfaces were regenerated with two 1 min injections of 10 mM glycine-HCl pH 1.5. In a similar manner the affinities for cynomolgus and mouse IL23R Fc chimera (R&D Systems, Cat. No. 1686-MR-050) was measured. The apparent dissociation (kd) and association (ka) rate constants and the apparent dissociation equilibrium constant (KD) were calculated with the MASS-1 analysis software (Analyzer, Sierra Sensors) using one-to-one Langmuir binding model.

Test [3] has as its target T3, mouse IL23R Fc chimera (R&D Systems, Cat. No. 1686-MR-050) (mouse, UniProt Q8K4B4 24-372).
T3 construct: bought; Fc part of the bought chimera not given
T3 sequence (looked up): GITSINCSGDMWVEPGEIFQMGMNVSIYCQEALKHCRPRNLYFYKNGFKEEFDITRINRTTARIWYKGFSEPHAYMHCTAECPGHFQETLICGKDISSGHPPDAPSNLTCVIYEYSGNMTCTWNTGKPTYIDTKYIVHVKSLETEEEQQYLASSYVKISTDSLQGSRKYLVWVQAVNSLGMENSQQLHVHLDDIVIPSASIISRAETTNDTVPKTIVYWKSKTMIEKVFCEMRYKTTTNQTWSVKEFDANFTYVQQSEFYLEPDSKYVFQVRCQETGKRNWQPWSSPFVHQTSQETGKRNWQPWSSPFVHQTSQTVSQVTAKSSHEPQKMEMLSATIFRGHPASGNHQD
The description is as above. The procedure: as §1

The target of test [4] is T4, recombinant human IL23R Fc chimera (R&D Systems, Cat. No. 1400-IR-050) (human, UniProt Q5VWK5 24-353).
T4 construct: bought
The test is described as above. The procedure:
as §1

B1: PRO165, bispecific anti-IL23R x CD3ε single-chain diabody (bispecific antibody)
chain: DIQMTQSPSSLSASVGDRVTITCQASENIYSFLAWYQQKPGKAPKLLIYSASKLAAGVPSRFSGSGSGTDFTLTISSLQPEDFATYYCQQTNRYSNPDIYNVFGQGTKLTVLGGGGGSEVQLVESGGGLVQPGGSLRLSCAASGFPLSSYAMIWVRQAPGKGLEWIGMILRAGNIYYASWVKGRFTISRDNSKNTVYLQMNSLRAEDTAVYYCARRHYNREGYPIGIGDLWGQGTLVTVSSGGGGSGGGGSGGGGSGGGGSDIQMTQSPSSLSASVGDRVTITCQSSESVYNNKRLSWYQQKPGKAPKLLIYTASSLASGVPSRFSGSGSGTDFTLTISSLQPEDFATYYCQGEFTCSNADCFTFGQGTKLTVLGGGGGSEVQLVESGGGLVQPGGSLRLSCAASGIDFNSNYYMCWVRQAPGKGLEWIGCIYVGSHVNTYYANWAKGRFTISRDNSKNTVYLQMNSLRAEDTAVYYCATSGSSVLYFKFWGQGTLVTVSS
notes: VL(anti-IL23R 14-11-D07-sc01)-G4S-VH(anti-CD3 clone 6)-(G4S)4-VL(anti-CD3 clone 6)-G4S-VH(anti-IL23R 14-11-D07-sc01); also called scDb
The Kd is the equilibrium constant for the complex coming apart. One may read the koff as a measure of how fast the partners let go of each other. What is called kon is the second-order rate constant of association. As for B1, in test [1], binding was characterised by a dissociation constant (Kd) of 11.6 nM, the koff stood at 0.00126 s⁻¹ and the kon worked out at 109000 M⁻¹ s⁻¹.

B2: humanized anti-IL23R scFv 14-11-D07-sc01 (scFv, V domains shown)
VH: EVQLVESGGGLVQPGGSLRLSCAASGIDFNSNYYMCWVRQAPGKGLEWIGCIYVGSHVNTYYANWAKGRFTISRDNSKNTVYLQMNSLRAEDTAVYYCATSGSSVLYFKFWGQGTLVTVSS
VL: DIQMTQSPSSLSASVGDRVTITCQASENIYSFLAWYQQKPGKAPKLLIYSASKLAAGVPSRFSGSGSGTDFTLTISSLQPEDFATYYCQQTNRYSNPDIYNVFGQGTKLTVLG
notes: tested as a single-chain Fv; CDR graft on a Vk1/VH3 human acceptor framework
In test [2], B2 returned a Kd of 0.124 nM, a koff of 0.000361 s⁻¹ and a kon of 2.92e+06 M⁻¹ s⁻¹. In test [3], the Kd was found to be 2.21 nM, the koff was 0.00418 s⁻¹ and the kon turned out to be 1.89e+06 M⁻¹ s⁻¹. Moreover, in test [4], the Kd turned out to be 0.116 nM, the koff amounted to 0.000259 s⁻¹ and the kon is 2.24e+06 M⁻¹ s⁻¹.

The values above are taken from US20160083473A1 (NUMAB THERAPEUTICS, published 2016).
